For one assay, the target named is T1, human IL-17R-Ig (human).
T1 construct: also called IL-17R-IgG; IL-17R-Ig fusion protein
The assay can be described thus: ELISA, IL-17R-Ig coated at 1.5 µg/ml, serial dilutions of biotin-conjugated IL-17F.

For a further assay, the target named is T2, human IL-17RC-Ig (human).
T2 construct: also called IL-17RC-IgG; IL-17RC-Ig fusion protein
The assay can be described thus: ELISA, IL-17RC-Ig coated at 1.5 µg/ml, serial dilutions of biotin-conjugated IL-17F.

T1 sequence (chain, as listed by the source limits assumed): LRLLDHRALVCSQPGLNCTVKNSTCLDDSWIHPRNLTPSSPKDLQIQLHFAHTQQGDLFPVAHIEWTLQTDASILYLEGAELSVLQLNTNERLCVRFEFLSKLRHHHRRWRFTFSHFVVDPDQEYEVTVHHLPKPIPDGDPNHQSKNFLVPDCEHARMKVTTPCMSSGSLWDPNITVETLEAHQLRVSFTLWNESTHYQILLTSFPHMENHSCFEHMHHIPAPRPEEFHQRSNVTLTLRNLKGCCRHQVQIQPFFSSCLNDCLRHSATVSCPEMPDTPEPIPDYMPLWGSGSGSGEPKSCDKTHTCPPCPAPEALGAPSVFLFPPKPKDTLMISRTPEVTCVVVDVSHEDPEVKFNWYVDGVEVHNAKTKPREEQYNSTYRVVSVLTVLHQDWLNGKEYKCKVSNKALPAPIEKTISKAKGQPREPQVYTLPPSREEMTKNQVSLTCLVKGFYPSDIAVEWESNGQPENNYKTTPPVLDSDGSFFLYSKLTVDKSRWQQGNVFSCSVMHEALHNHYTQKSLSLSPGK
T2 sequence (chain, as listed by the source limits assumed): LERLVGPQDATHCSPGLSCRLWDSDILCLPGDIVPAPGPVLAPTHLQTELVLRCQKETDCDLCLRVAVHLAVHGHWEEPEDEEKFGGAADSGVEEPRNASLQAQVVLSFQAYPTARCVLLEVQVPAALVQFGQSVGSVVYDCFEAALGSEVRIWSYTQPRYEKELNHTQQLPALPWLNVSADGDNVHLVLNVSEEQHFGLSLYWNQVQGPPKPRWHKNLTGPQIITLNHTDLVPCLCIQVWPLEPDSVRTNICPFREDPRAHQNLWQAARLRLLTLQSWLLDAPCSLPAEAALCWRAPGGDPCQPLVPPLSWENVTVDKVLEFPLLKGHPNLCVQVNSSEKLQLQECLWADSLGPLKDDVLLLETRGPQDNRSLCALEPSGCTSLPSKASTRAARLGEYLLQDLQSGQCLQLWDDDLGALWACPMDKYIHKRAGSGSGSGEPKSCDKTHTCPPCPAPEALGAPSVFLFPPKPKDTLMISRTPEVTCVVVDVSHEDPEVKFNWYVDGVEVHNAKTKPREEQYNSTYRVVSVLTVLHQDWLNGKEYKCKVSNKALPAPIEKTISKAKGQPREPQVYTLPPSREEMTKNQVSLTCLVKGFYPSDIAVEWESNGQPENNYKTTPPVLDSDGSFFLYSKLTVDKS
Experimental for human IL-17R-Ig: (§1) After washing, saturating concentrations of avidin-horseradish peroxidase (HRP) were added, and plates were incubated for an additional 1 h at RT. Unbound avidin-HRP was washed using PBS/1% BSA, and the ELISA was developed using TBM.
Experimental for human IL-17RC-Ig: as §1

B1: human IL-17F (IL-17F homodimer) (ligand)
chain: RKIPKVGHTFFQKPESCPPVPGGSMKLDIGIINENQRVSMSRNIESRSTSPWNYTVTWDPNRYPSEVVQAQCRNLGCINAQGKEDISMNSVPIQQETLVVRRKHQGCSVSFQLEKVLVTVGCTCVTPVIHHVQ
modifications: biotin-conjugated in the receptor-binding and inhibition ELISAs (sites not given)
notes: Used as purified protein, as recombinant conditioned media (293, COS) and as natural protein from T cell conditioned media; also called IL-17F/F; interleukin-17F
As for B1, the figures for the EC50 in the assay with human IL-17R-Ig and with human IL-17RC-Ig were 1.23 µg/mL and 15 µg/mL, respectively.

Source of the values: patent publication US20090142806A1 (Pfizer, published 2009).
